Data published in US6132722A, “Recombinant antibody-enzyme fusion proteins” (Bristol-Myers Squibb Company, priority 1998, dated 2000).

Assays:
[1] = Michaelis-Menten kinetic analysis of bL activity with nitrocefin as substrate; assay type: biochemical
From the text: Enzymatic activity assays of the bL portion of L49-sFv-bL were undertaken using nitrocefin as the enzyme substrate (Table 1). […] Thus, both the binding of the L49 antibody and enzymatic activity of the E. cloacae r2-1 bL were preserved in the fusion protein.

[2] = Clearance of conjugate from the blood of nude mice; assay type: in vivo
Experimental: FIGS. 9A and 9B depict pharmacokinetics of L49-sFv-bL in nude mice (3 animals/group). L49-sFv-bL was injected intravenously, tissues were removed and extracted at the indicated times, and the β-lactamase activity was determined using nitrocefin as a substrate. FIG. 9A depicts clearance of L49-sFv-bL from the blood. Injected dose was 4 mg/kg. FIG. 9B depicts L49-sFv-bL levels in subcutaneous 3677 melanoma tumors and in normal tissues. Injected dose was 1 mg/kg.
Conjugate Localization. Subcutaneous 3677 melanoma tumors were established in female athymic nu/nu mice (8-12 weeks old, Harlan Sprague-Dawley, Indianapolis, Ind.) by transplanting tumors that had been previously passaged as previously described (Kerr et al., Cancer Res., 55:3558-3563 (1995)). Tumor bearing mice were injected i.v. with L49-sFv-bL (1 or 4 mg mAb component/kg) or with L49-Fab'-bL (1.8 mg mAb component/kg). At various time intervals, the mice were anesthetized, bled through the orbital plexus, and sacrificed. Tissues were removed and homogenized in PBS containing 15 μg/ml aprotinin (2 mL/g tissue). To the homogenate was added 50 mM sodium phosphate containing 100 mM NaCl at pH 11.2 (10 ml/g tissue), and the suspension was mixed. After 20 min at room temperature, 3M sodium phosphate at pH 7.0 was added (2 ml/g tissue), and the mixture was mixed and centrifuged.
Quantification of conjugate concentrations was accomplished using a direct enzyme immunoassay. Polystyrene 96-well microtiter plates were coated with an affinity-purified rabbit polyclonal antisera to wild type E. cloacae bL (1 μg/ml), and were then blocked with specimen diluent (Genetic Systems Corp.). Serially diluted tissue extracts or purified samples (L49-sFv-bL as a standard for the fusion protein samples, L49-Fab'-bL as a standard for the L49-Fab'-bL samples) were added to the wells and allowed to bind for 3 h at room temperature. The plates were washed and developed by the addition of 0.1 ml of nitrocefin (O'Callaghan et al., Antimicrobial Agents and Chemotherapy, 1:283-288 (1972)) at 0.1 mM in PBS containing 1% dimethylformamide. Absorbance measurements were read in an ELISA plate reader using a 490 nm filter with 630 nm as the reference wavelength.
In Vivo Localization. Biodistribution studies of L49-sFv-bL and L49-Fab'-bL were carried out in nude mice bearing subcutaneous (s.c.) 3677 melanoma tumor xenografts. The conjugates were injected i.v., and at various time points tissues were removed and extracted under alkaline conditions to disrupt antigen-antibody interactions. The samples were then trapped a polyclonal antiserum to bL, and bL activity was measured using nitrocefin as a colorimetric indicator (O'Callaghan et al, Antimicrobial Agents and Chemotherapy, 1:283-288 (1972)).

[3] = tested on: 3677 melanoma xenografts; assay: In vivo therapy of established s.c. 3677 melanoma xenografts; set-up: species or system nude mice
Experimental: FIGS. 10A-10D. Therapeutic effects of L49-sFv-bL/CCM combinations in nude mice (six mice/group) with subcutaneous 3677 melanoma xenografts. Conjugates were injected, followed at various times by CCM (arrows on the X-axis). […] FIG. 10A. L49-sFv-bL (1 mg/kg/injection) 12 h before CCM. FIG. 10B. L49-sFv-bL (1 mg/kg/injection) 24 h before CCM. FIG. 10C. L49-sFv-bL (4 mg/kg/injection) 24 h before CCM. FIG. 10D. L49-sFv-bL (4 mg/kg/injection) 48 h before CCM.
In Vivo Therapy Experiments. 3677 tumor-bearing mice (subcutaneous implants, six animals/group, average tumor volume 130 mm^3) were injected with L49-sFv-bL (i.v., 7-8 days post tumor implant), followed 12-48 h later by CCM using doses of fusion protein and prodrug as indicated in the Results section. Treatment with L49-sFv-bL+CCM was repeated 1 week later. Animals were monitored 1-2 times/week for body weight, general health, and tumor growth. Tumor volume was estimated using the formula: longest length×perpendicular dimension^2 /2. Cures were defined as an established tumor that, after treatment, was not palpable for ≥10 tumor volume doubling delays (≥40 days in the 3677 tumor model). Maximum tolerated doses led to less than 20% weight loss, no treatment-related deaths, and were within 50% of the dose where such events took place.
Therapeutic Activity. In vivo therapy experiments were performed using the L49-sFv-bL/CCM combination in nude mice with established s.c. 3677 tumors. […] In the experiments reported here, conjugate treatment was initiated 7-8 days after tumor implant, at which time the tumors were approximately 130 mm^3 in volume. CCM was then administered 12, 24, or 48 h later, and the treatment protocol was repeated after 1 week. Maximum tolerated doses are defined as those that led to less than 20% weight loss, no treatment-related deaths, and were within 50% of the dose where such events took place. A tumor was considered as having been cured once it was not palpable for at least 10 tumor volume doubling times, based on the tumor growth of untreated animals (tumor volume doubling time was 4 days). If an animal was removed from the experiment because of tumor growth, the data from the entire group was no longer plotted, but the remaining animals were followed for tumor size and general health.

[4] = L49-sFv-bL 1 mg/kg/injection, CCM 75 mg/kg/injection 12 h later

B1: L49-sFv-bL: recombinant fusion protein: L49 anti-p97 single-chain Fv (VH-218 linker-VL) fused to r2-1 mutant E. cloacae β-lactamase, SEQ ID NO: 20 (protein)
chain: MKYLLPTAAAGLLLLAAQPAMAEVQLQESGPSLVKPSQTLSLTCSVTGDSITSGYWNWIRKFPGNKLEYMGYISDSGITYYNPSLKSRISITRDTSKNQYYLQLNFVTAEDTATYNCARRTLATYYAMDYWGQGTSVTVSSGSTSGSGKPGSGEGSTKGDFVMTQTPLSLPVSLGDQASISCRASQSLVHSNGNTYLHWYLQKPGQSPKLLIYRVSNRFSGVPDRFSGSGSGTDFTLKISRVEAEDLGVYFCSQSTHVPPTFGGGTKLEIKRTPVSEKQLAEVVANTITPLMKAQSVPGMAVAVIYQGKPHYYTFGKADIAANKPVTPQTLFELGSISKTFTGVLGGDAIARGEISLDDAVTRYWPQLTGKQWQGIRMLDLATYTAGGLPLQVPDEVTDNASLLRFYQNWQPQWKPGTTRLYANASIGLFGALAVKPSGMPYEQAMTTRVLKPLKLDHTWINVPKAEEAHYAWGYRDGKAVRVSPGMLDAQAYGVKTNVQDMANWVMANMAPENVADASLKQGIALAQSRYWRIGSMYQGLGWEMLNWPVEANTVVETSFGNVALAPLPVAEVNPPAPPVKASWVHKTGSTGGFGSYVAFIPEKQIGIVMLANTSYPNPARVEAAYHILEALQTSEFE
In the case of B1, the Km [1] is reported as 19 µM, the “enzymatic activity relative to the mutant bL enzyme” value [1] is reported as “retained the full enzymatic activity” and the kcat [1] is reported as 232 s⁻¹. The “initial clearance half life t1/2 α” value ([2]; blood, i.v., 4 mg/kg) was 0.3 h, the “terminal clearance half life t1/2 β” value ([2]; blood, i.v., 4 mg/kg) was 2.5 h and the “clearance from the blood” value ([2]; i.v., nude mice) was “cleared very rapidly”. The “reduction of blood levels” value ([2]; within 24 h of conjugate administration) was 10^4, the toxicity ([3]; CCM 24 h post conjugate, both cases (FIG. 10B, 10C)) was “no evidence of toxicity” and the “cures in the group of six mice” value [3, 4] was “four”. For the same molecule, the “tumor response of the remaining two animals” value [3, 4] was “partial regressions”, the tumor cures ([3]; L49-sFv-bL 1 mg/kg/injection, CCM 125 and 175 mg/kg/injection 12 h later, repeated after 1 week) was “all of the animals” and the tumors cured ([3]; L49-sFv-bL 1 mg/kg/injection, increased CCM dose 24 h later (FIG. 10B)) was “the majority of tumors were cured”. For the same molecule, the “animals cured, of six” value ([3]; L49-sFv-bL 4 mg/kg/injection, CCM 275 mg/kg/injection 48 h later) was “three”, the tumors cured ([3]; L49-sFv-bL 4 mg/kg/injection, CCM 24 h later (FIG. 10C)) was “the majority of tumors were cured” and the tumor regressions ([3]; L49-sFv-bL 4 mg/kg/injection, CCM 48 h later (FIG. 10D)) was “all of the mice”. The toxicity ([3]; L49-sFv-bL then CCM 75, 125 or 175 mg/kg/injection 12 h later) was “no apparent toxicities”.
